Measured values published in the supplement of paper PMC12042874.
± gives the uncertainty stated by the source.

Assay: amyloid nucleation score (Sup35N fusion, yeast selection) (log enrichment); library NNK1; higher = more nucleation; inactive = no reads after selection
Procedure, shortened: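 The nucleation score, computed with DiMSum, is the log enrichment of output over input reads, centred on the mode score of non-aggregating sequences. Sequences with under 100 input reads were dropped. Reads were generated by Illumina sequencing of plasmid inserts from psi-negative yeast with Sup35N fused to peptides of 20 random codons, induced with 100 μM copper sulfate for 24 hours and grown 7 days at 30°C on medium lacking adenine and uracil.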

Substance	amyloid nucleation score
DACMTGSTLTGYLSTDVGLI	inactive
VLFGS	-0.462 ± 0.93
KVSPIMDEN	0.547 ± 0.37
SGKTALNSGSFKFLTSSICG	0.224 ± 1.4
VRYVNRLKAHALDPKLKTL	-0.18 ± 0.62
QHHLIGMVRSIGEKMLAKNQ	0.094 ± 0.34
LNTAQI	0.512 ± 0.29
CFFFPPEYTKRLKSSSMVRR	-0.652 ± 0.9
LGIAGER	0.294 ± 0.33
SYFRFVLYN	0.052 ± 1.1
SNESILFVGSPVTRFIQYVD	inactive
TRYTKKWQVLTDWSVGYTGT	-0.443 ± 0.41
INMYWY	-0.031 ± 0.31
VYAMGIHWRFCAKKRIMSG	-0.802 ± 1.7
LCRIKGHRFIQVDTGEAVWS	-0.629 ± 0.61
LYLHSWAYVHKNTLNYL	-0.14 ± 0.5
LMWWGMNDSR	-0.025 ± 0.28
WEGGGMGNYVQRHACARHKV	0.125 ± 0.3
NLICNLVDNQFPVWQLLRIW	2.3 ± 0.17
YNYVG	-1.29 ± 2.7
CLWSSVGRQTEWFSHEVNGG	0.017 ± 0.43
TRRHKYFEWD	-0.285 ± 0.8
CCIVSGFALSSTTRMNVR	1.77 ± 0.15
CWIFQDCCQKDCMLFLPCCK	0.554 ± 0.26
IIVFGSLEELVGAGLLGRLR	-0.106 ± 1.7

Substance	amyloid nucleation score
LLVSTVRVNGQI	-0.016 ± 0.42
RWSRI	-0.253 ± 0.23
IIFGRGFFSHSGVRTNQCYT	-1.43 ± 1
YKSISSDSAKWFVMGLNGLV	-1.6 ± 1.1
DLVTH	0.015 ± 0.83
FVRCSAKMDLWSVLTVCSFC	3.2 ± 0.12
RKHVVPGKIF	0.006 ± 0.51
LNLTCDHSPSYLLIFFLMSI	0.719 ± 0.2
GNTVRYVKRMYY	-0.056 ± 0.5
HYMRWIGLRTDTKGPRSGSG	-0.578 ± 0.86
RAVANCVLSLCYWNCCLYRY	-0.343 ± 1.4
YWFCNRIGIVGIVLSGYLCL	-0.154 ± 0.26
THYYCVLTGKITRRVLYILL	-1.13 ± 0.67
LSYLLWGETRIRYWVPASLM	-0.32 ± 0.61
PPMDIGLLPVRI	-1.69 ± 1.7
RYVGLGGFM	-0.655 ± 0.46
RYWFLSYFHPANNYDDWKNC	-1.03 ± 1.2
TFSMSQNWVLNCAYLVIGYH	4 ± 0.14
RFSGVFSDQLVLSD	-0.713 ± 0.68
RRLMNMLEGGHMGG	0.083 ± 0.29
FAPRSLGFYMNFFPRMMGQR	-0.88 ± 1.5
EGVHNSRKVEPGVKFGSGAR	0.621 ± 1
LSRVKSR	1.29 ± 0.62
ANSSFLYTSEHFRHVMAWFG	-0.075 ± 0.68
RSFIVCSRNRVGLTNFRCLE	0.364 ± 0.84

Substance	amyloid nucleation score
TISAI	0.142 ± 0.92
GSHWPYDGWWISYLWFHLR	0.858 ± 0.38
LLLGYVKSSLPIVGYSRMEG	0.548 ± 0.35
EICYRMICCYSN	0.085 ± 0.66
PMYWLPIFLS	inactive
QIYKVDGYFQVGILLLSPVP	-1.29 ± 0.95
YLTWQKTWRVRVSVLCTGTD	0.638 ± 0.58
IFDSFQATLCLGCLMLLSYF	0.423 ± 0.44
FTDSTRFGSYLLSSAMFPTM	-1.65 ± 2.7
IFSRSEEFVFFGHINSV	1.68 ± 0.32
RCINGNIYNKSW	0.18 ± 0.26
YTSSFVKDGKHWSRSKTGVY	-0.569 ± 0.73
QSGVNNTVLVCIVQSFSSLM	5.5 ± 0.082
YWGYKTGQDCFSHSIRRRIL	-0.105 ± 0.85
YISLRFISYYYYVRGKFYMK	0.672 ± 0.56
RIRVI	0.544 ± 0.63
KVHPYEMDENYNPSRCYSSS	-0.049 ± 0.48
ALNHRHTGTRK	0.782 ± 0.61
FCWVGQNEWCRHLFELCLER	0.517 ± 0.63
FFQRVCK	1.65 ± 0.31
LRNHASVPV	0.084 ± 0.4
LKDRGYQKYFNSGLIGCNAS	-0.096 ± 0.47
RIKVYALMHRSGGICTFIR	0.04 ± 0.21
TYLYNYILASSLSHRALYNA	1.62 ± 0.73
VNCFSTLSMLWMSVQTEPRV	1.04 ± 0.28

Substance	amyloid nucleation score
LGTGCA	-0.507 ± 0.83
VRMGQDRHIISTKLTVSREL	-1.22 ± 2.7
VDLGRSKWCLTMYESYENGR	-0.127 ± 0.3
TMGSLMFWF	-0.356 ± 0.95
FFTKAGRPFGLTRDISVL	-0.23 ± 0.87
VAAACFFNRCWEHTYVMIVK	3.1 ± 0.17
SFLLNPTADMNHCFGDVFGG	-1.44 ± 1.4
ESYSYQGCFATYLQQNTWCT	-0.008 ± 0.28
TWSSKIEDSSAYYDG	1.65 ± 0.36
CKEINL	-0.374 ± 0.6
KSLVVACDVYSNALLRVMFR	-0.291 ± 0.26
GNSMSHASTVKVFLAQLGGD	-1.04 ± 2.1
IRMVMGTNKFDHVKSRDN	inactive
QYTAHMLCLALLYRFEWNEN	2.24 ± 0.27
SMESLTVEAMNSVEAFPVTY	-1.22 ± 0.73
RFSDT	-0.568 ± 0.3
LGRIDRWKDQWCSLAELKS	-0.383 ± 1.7
WVLWYSLLLTDGGDLIESTW	-0.156 ± 0.23
VFTGLLLL	-0.034 ± 0.36
VSFRTLYGRI	-0.187 ± 0.27
MAKTFRLGGLDCHLNYVVWC	0.113 ± 0.61
ALWCMRSTSRLGKCFGLVIY	-0.945 ± 0.77
SSFIAYASSDTWFTVKA	1.09 ± 0.36
KGVHGYCRRIM	inactive
CSLVLAIRHATCQEVVVGSC	0.602 ± 0.6

Substance	amyloid nucleation score
TYWFMSRC	0.254 ± 0.88
VWENQLVWMVWWWEGTGS	0.527 ± 0.49
LYRSGSVMSSATHYRGAHLC	-0.556 ± 0.77
LFNSYIAVGVKKTSSEVMQR	0.385 ± 0.55
GSDTNSNRLIMLMFGTVFCA	2.84 ± 0.16
RCILRSTSFRAVAWM	0.771 ± 0.67
GGLVRSKFYFTL	0.19 ± 0.25
FTLLTAPGMATHLRTGMRSR	0.51 ± 0.56
YPIYIVWVFIVITICVANDS	-0.072 ± 0.31
QIFYSFTLYCNRNGWRDVFL	0.269 ± 0.59
YSVDKIAYFGINKCRTVLWE	1.09 ± 0.52
SMSAQPFCNHV	-0.926 ± 0.91
SEIYSTWNKV	0.002 ± 0.48
LNVRGITIKLCHFRRIWYAQ	-1.25 ± 0.83
QHWAGIPDLAF	0.547 ± 0.64
PGGYM	0.597 ± 0.52
VKNRNKGTYRCWVVYITGKS	-0.205 ± 0.28
CCGLSDLYDVAVERVGGLLN	-1.26 ± 1.1
DLIWNSSFVRLNVTNPLMFR	inactive
VSIGILLFILPSRTGCVCLM	0.087 ± 0.66
IHWNWWIRLCGFPFAFYISG	0.233 ± 0.32
SITSSYKYGKVSWSMSLGVG	-1.07 ± 0.46
VTHNSTAHE	1.09 ± 0.75
QGYASLGTQRTRPGYGKFGE	0.382 ± 0.27
RVRNMPTPSLSHMNLFSSVG	-0.038 ± 0.35

Substance	amyloid nucleation score
MILWPS	1.64 ± 0.16
RLLSPLY	-0.773 ± 2.1
VLKLLVVRFVPLPSSFYTCE	0.193 ± 0.92
MHWLDYSFELLDGQ	1.01 ± 0.75
EDEYQDPTTGVIHVVMGTCV	0.044 ± 1.1
FRFRLGNFGLRFRGYPERII	0.405 ± 0.3
PLWAPNSSNFAINRNQWRFN	0.11 ± 0.57
SLVYYLGEWV	-0.366 ± 0.34
SVSLTNGVAEADKRYASAWL	-0.093 ± 0.31
RASRMHGQGPLKNVWEGLYQ	0.119 ± 0.98
FSLVATGSYITLDSVLMDVL	0.728 ± 0.44
VGSTKSDVTDFLDCMNGLEW	0.462 ± 0.63
GFNLFCATESYYFFSLMVMG	-0.13 ± 0.25
PLRTLPEQRCW	-0.006 ± 0.29
VGRLGKFRGFSIGNYECSI	0.726 ± 0.55
HKCVLELFSLIFLGGYFFLR	0.041 ± 0.45
MVGNIYSSPFYPRYSLTNGT	-0.161 ± 0.83
RVSAMNEGMRIVCWLVFFRP	-0.166 ± 0.9
SYGWCCTNYNSFVWTYPLTK	5.79 ± 0.06
YGKWWWVYRKTSVRRGDGAG	0.49 ± 0.54
PAMAWSSSMSFRGTILLDFA	-1.44 ± 2.7
PRSVVSTEPSGTVGVPKENK	-0.839 ± 0.62
DVCASGRKIVRFFPMSARAQ	inactive
DTLVDVVFDADVV	0.26 ± 0.28
SCVAVRLLWQDMHPRANEPR	3.34 ± 0.13

Substance	amyloid nucleation score
GCTLLESCVYGKSVRSYHQW	0.253 ± 0.52
VVESGVFWDSSYNFKGDTVW	0.532 ± 0.92
NLVYTAIAPPFASFRK	0.005 ± 0.65
FVSSVGKSEQVPSTEFFCVS	0.174 ± 1.5
PVRVYIGGEDACMKSTKHMY	5.65 ± 0.085
LIMILGIRDHLTNCGGKVLQ	2.03 ± 0.3
LSHSEDVSQETTIYPNLSCN	-0.533 ± 0.68
ACDLNIIWADNSDYLIYVIS	0.341 ± 0.36
DNGLGKCSMQPEWHRAWGAR	2.06 ± 0.13
VLCGNPLFRFVLGWRFCVWG	0.335 ± 1.1
CSAYDQVWDTNGRVCFA	-0.003 ± 0.41
QFFQPCVKC	1.06 ± 0.57
RCCLVMCWCLCKNYSN	5.38 ± 0.049
VCMISAQYYLDIMMGRCNVI	0.468 ± 0.36
AMNRHGLWKSSVSRGILFFS	0.129 ± 0.35
LYWFAAWLATYIYAW	0.109 ± 0.48
WRVSMFGLSESLDRLPCKDL	-0.371 ± 0.45
LVMYDSL	0.489 ± 0.58
NILFCWMGTMYPLLLSAYGR	-0.793 ± 0.48
FRTATWNKIGAQDRVKSISV	-1.06 ± 2.7
ALLVPGILW	3.34 ± 0.078
RCSCFY	inactive
DPVSIMTGRQDPRGCGVTCF	-1.96 ± 2.7
